From the RNAGym collection of RNA variant scans (doi:10.1021/acssynbio.7b00057)

B1: Pistol ribozyme (parent)
chain: GGGUCGUUGUUCCAUAAUCGCGUGGAUAUGGCACGCAAGUUUCUACCGGGCACCGUAAAUGUCCGACUGGAGCCGUUCGGGCGGCUAUAAACAGACCUCAGGCCCGAAGCGUGGCGGCACCUGCCGCCGGUGGUAAAAAAGAUCGGAAGAGCACACGUCU

Variants of: B1
Assay: aptazyme ON/OFF ratio, guanine; higher = stronger switching; co-transcriptional cleavage with and without guanine

Point of comparison: GGGUCGUUCAGCAAUAAUCGCGUGGAUAUGGCACGCAAGUUUCUACCGGGCACCGUAAAUGUCCGACUGGAGCCGUUCGGGCGGCUAUAAACAGACCUCAGGCCCGAAGCGUGGCGGCACCUGCCGCCGGUGGUAAAAAAGAUCGGAAGAGCACACGUCU, “aptazyme ON/OFF ratio” value 1.21. Against it:
- GGGUCGUUCCUCCAUAAUCGCGUGGAUAUGGCACGCAAGUUUCUACCGGGCACCGUAAAUGUCCGACUGGAGCCGUUCGGGCGGCUAUAAACAGACCUCAGGCCCGAAGCGUGGCGGCACCUGCCGCCGGUGGUAAAAAAGAUCGGAAGAGCACACGUCU — higher, 1.52
- GGGUCGUUCCUAGAUAAUCGCGUGGAUAUGGCACGCAAGUUUCUACCGGGCACCGUAAAUGUCCGACUGGAGCCGUUCGGGCGGCUAUAAACAGACCUCAGGCCCGAAGCGUGGCGGCACCUGCCGCCGGUGGUAAAAAAGAUCGGAAGAGCACACGUCU — lower, 1.06
- GGGUCGUUCCUAAAUAAUCGCGUGGAUAUGGCACGCAAGUUUCUACCGGGCACCGUAAAUGUCCGACUGGAGCCGUUCGGGCGGCUAUAAACAGACCUCAGGCCCGAAGCGUGGCGGCACCUGCCGCCGGUGGUAAAAAAGAUCGGAAGAGCACACGUCU — lower, 1.03
- GGGUCGUUCCUAUAUAAUCGCGUGGAUAUGGCACGCAAGUUUCUACCGGGCACCGUAAAUGUCCGACUGGAGCCGUUCGGGCGGCUAUAAACAGACCUCAGGCCCGAAGCGUGGCGGCACCUGCCGCCGGUGGUAAAAAAGAUCGGAAGAGCACACGUCU — lower, 1.05
- GGGUCGUUCCAAGAUAAUCGCGUGGAUAUGGCACGCAAGUUUCUACCGGGCACCGUAAAUGUCCGACUGGAGCCGUUCGGGCGGCUAUAAACAGACCUCAGGCCCGAAGCGUGGCGGCACCUGCCGCCGGUGGUAAAAAAGAUCGGAAGAGCACACGUCU — lower, 1.07
- GGGUCGUUCCAAAAUAAUCGCGUGGAUAUGGCACGCAAGUUUCUACCGGGCACCGUAAAUGUCCGACUGGAGCCGUUCGGGCGGCUAUAAACAGACCUCAGGCCCGAAGCGUGGCGGCACCUGCCGCCGGUGGUAAAAAAGAUCGGAAGAGCACACGUCU — lower, 1.06
- GGGUCGUUCCAAUAUAAUCGCGUGGAUAUGGCACGCAAGUUUCUACCGGGCACCGUAAAUGUCCGACUGGAGCCGUUCGGGCGGCUAUAAACAGACCUCAGGCCCGAAGCGUGGCGGCACCUGCCGCCGGUGGUAAAAAAGAUCGGAAGAGCACACGUCU — lower, 1.11
- GGGUCGUUCCUCUAUAAUCGCGUGGAUAUGGCACGCAAGUUUCUACCGGGCACCGUAAAUGUCCGACUGGAGCCGUUCGGGCGGCUAUAAACAGACCUCAGGCCCGAAGCGUGGCGGCACCUGCCGCCGGUGGUAAAAAAGAUCGGAAGAGCACACGUCU — lower, 1.1
- GGGUCGUUCCUCGAUAAUCGCGUGGAUAUGGCACGCAAGUUUCUACCGGGCACCGUAAAUGUCCGACUGGAGCCGUUCGGGCGGCUAUAAACAGACCUCAGGCCCGAAGCGUGGCGGCACCUGCCGCCGGUGGUAAAAAAGAUCGGAAGAGCACACGUCU — lower, 1.06
- GGGUCGUUCCUCAAUAAUCGCGUGGAUAUGGCACGCAAGUUUCUACCGGGCACCGUAAAUGUCCGACUGGAGCCGUUCGGGCGGCUAUAAACAGACCUCAGGCCCGAAGCGUGGCGGCACCUGCCGCCGGUGGUAAAAAAGAUCGGAAGAGCACACGUCU — lower, 1.06
- GGGUCGUUCAGCGAUAAUCGCGUGGAUAUGGCACGCAAGUUUCUACCGGGCACCGUAAAUGUCCGACUGGAGCCGUUCGGGCGGCUAUAAACAGACCUCAGGCCCGAAGCGUGGCGGCACCUGCCGCCGGUGGUAAAAAAGAUCGGAAGAGCACACGUCU — lower, 1.09
- GGGUCGUUCAGCUAUAAUCGCGUGGAUAUGGCACGCAAGUUUCUACCGGGCACCGUAAAUGUCCGACUGGAGCCGUUCGGGCGGCUAUAAACAGACCUCAGGCCCGAAGCGUGGCGGCACCUGCCGCCGGUGGUAAAAAAGAUCGGAAGAGCACACGUCU — higher, 1.35
- GGGUCGUUCCUUCAUAAUCGCGUGGAUAUGGCACGCAAGUUUCUACCGGGCACCGUAAAUGUCCGACUGGAGCCGUUCGGGCGGCUAUAAACAGACCUCAGGCCCGAAGCGUGGCGGCACCUGCCGCCGGUGGUAAAAAAGAUCGGAAGAGCACACGUCU — lower, 1.12
- GGGUCGUUCCUGCAUAAUCGCGUGGAUAUGGCACGCAAGUUUCUACCGGGCACCGUAAAUGUCCGACUGGAGCCGUUCGGGCGGCUAUAAACAGACCUCAGGCCCGAAGCGUGGCGGCACCUGCCGCCGGUGGUAAAAAAGAUCGGAAGAGCACACGUCU — lower, 1.06
- GGGUCGUUCCUACAUAAUCGCGUGGAUAUGGCACGCAAGUUUCUACCGGGCACCGUAAAUGUCCGACUGGAGCCGUUCGGGCGGCUAUAAACAGACCUCAGGCCCGAAGCGUGGCGGCACCUGCCGCCGGUGGUAAAAAAGAUCGGAAGAGCACACGUCU — lower, 1.09
- GGGUCGUUCCAUUAUAAUCGCGUGGAUAUGGCACGCAAGUUUCUACCGGGCACCGUAAAUGUCCGACUGGAGCCGUUCGGGCGGCUAUAAACAGACCUCAGGCCCGAAGCGUGGCGGCACCUGCCGCCGGUGGUAAAAAAGAUCGGAAGAGCACACGUCU — lower, 1.06
- GGGUCGUUCCAUAAUAAUCGCGUGGAUAUGGCACGCAAGUUUCUACCGGGCACCGUAAAUGUCCGACUGGAGCCGUUCGGGCGGCUAUAAACAGACCUCAGGCCCGAAGCGUGGCGGCACCUGCCGCCGGUGGUAAAAAAGAUCGGAAGAGCACACGUCU — lower, 1.08
